In the test the target is Flag-EGFR purified from 293T cells (UniProt P00533 25-1210). As to the kind of experiment: co-IP.

Here are results for one molecule from PMC7047192 (EBioMedicine, 2020).

B1: His-CDC34 (enzyme)
chain: MARPLVPSSQKALLLELKGLQEEPVEGFRVTLVDEGDLYNWEVAIFGPPNTYYEGGYFKARLKFPIDYPYSPPAFRFLTKMWHPNIYETGDVCISILHPPVDDPQSGELPSERWNPTQNVRTILLSVISLLNEPNTFSPANVDASVMYRKWKESKGKDREYTDIIRKQVLGTKVDAERDGVKVPTTLAEYCVKTKAPAPDEGSDLFYDDYYEDGEVEEEADSCFGDDEDDSGTEES
As to B1, the binding result is listed as “binds”.
